Consider five variants from IntAct's records for PubMed 31515488.

B1: Protein LDOC1 (Homo sapiens), O95751 (parent)
chain: MVDELVLLLHALLMRHRALSIENSQLMEQLRLLVCERASLLRQVRPPSCPVPFPETFNGESSRLPEFIVQTASYMLVNENRFCNDAMKVAFLISLLTGEAEEWVVPYIEMDSPILGDYRAFLDEMKQCFGWDDDEDDDDEEEEDDY
partner: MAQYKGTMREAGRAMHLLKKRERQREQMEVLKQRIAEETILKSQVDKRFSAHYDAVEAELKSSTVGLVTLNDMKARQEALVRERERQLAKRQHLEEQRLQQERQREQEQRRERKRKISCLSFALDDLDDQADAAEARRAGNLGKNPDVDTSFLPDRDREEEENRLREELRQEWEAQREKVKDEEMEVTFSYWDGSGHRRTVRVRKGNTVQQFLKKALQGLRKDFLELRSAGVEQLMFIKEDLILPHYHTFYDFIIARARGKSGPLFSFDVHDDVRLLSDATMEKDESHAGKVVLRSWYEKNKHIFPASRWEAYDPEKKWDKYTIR
B2: Proteasome inhibitor PI31 subunit (Homo sapiens), Q92530 (parent)
chain: MAGLEVLFASAAPAITCRQDALVCFLHWEVVTHGYFGLGVGDQPGPNDKKSELLPAGWNNNKDLYVLRYEYKDGSRKLLVKAITVESSMILNVLEYGSQQVADLTLNLDDYIDAEHLGDFHRTYKNSEELRSRIVSGIITPIHEQWEKANVSSPHREFPPATAREVDPLRIPPHHPHTSRQPPWCDPLGPFVVGGEDLDPFGPRRGGMIVDPLRSGFPRALIDPSSGLPNRLPPGAVPPGARFDPFGPIGTSPPGPNPDHLPPPGYDDMYL
partner: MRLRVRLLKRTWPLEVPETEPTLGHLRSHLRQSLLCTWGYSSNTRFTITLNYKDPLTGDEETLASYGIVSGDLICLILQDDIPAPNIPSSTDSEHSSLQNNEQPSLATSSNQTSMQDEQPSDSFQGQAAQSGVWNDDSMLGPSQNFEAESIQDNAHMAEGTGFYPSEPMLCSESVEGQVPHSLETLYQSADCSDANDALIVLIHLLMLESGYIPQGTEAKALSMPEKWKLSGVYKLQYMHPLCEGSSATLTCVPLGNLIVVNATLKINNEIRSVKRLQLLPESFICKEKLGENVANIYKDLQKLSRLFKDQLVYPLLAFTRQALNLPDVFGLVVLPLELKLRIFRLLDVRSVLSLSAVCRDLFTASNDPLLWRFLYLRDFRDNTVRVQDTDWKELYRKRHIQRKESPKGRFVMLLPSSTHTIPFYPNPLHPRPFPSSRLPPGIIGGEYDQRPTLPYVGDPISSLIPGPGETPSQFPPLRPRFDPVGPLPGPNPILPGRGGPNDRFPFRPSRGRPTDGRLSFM
B3: Septin-2 (Homo sapiens), Q15019 (parent)
chain: MSKQQPTQFINPETPGYVGFANLPNQVHRKSVKKGFEFTLMVVGESGLGKSTLINSLFLTDLYPERVIPGAAEKIERTVQIEASTVEIEERGVKLRLTVVDTPGYGDAINCRDCFKTIISYIDEQFERYLHDESGLNRRHIIDNRVHCCFYFISPFGHGLKPLDVAFMKAIHNKVNIVPVIAKADTLTLKERERLKKRILDEIEEHNIKIYHLPDAESDEDEDFKEQTRLLKASIPFSVVGSNQLIEAKGKKVRGRLYPWGVVEVENPEHNDFLKLRTMLITHMQDLQEVTQDLHYENFRSERLKRGGRKVENEDMNKDQILLEKEAELRRMQEMIARMQAQMQMQMQGGDGDGGALGHHV
partner: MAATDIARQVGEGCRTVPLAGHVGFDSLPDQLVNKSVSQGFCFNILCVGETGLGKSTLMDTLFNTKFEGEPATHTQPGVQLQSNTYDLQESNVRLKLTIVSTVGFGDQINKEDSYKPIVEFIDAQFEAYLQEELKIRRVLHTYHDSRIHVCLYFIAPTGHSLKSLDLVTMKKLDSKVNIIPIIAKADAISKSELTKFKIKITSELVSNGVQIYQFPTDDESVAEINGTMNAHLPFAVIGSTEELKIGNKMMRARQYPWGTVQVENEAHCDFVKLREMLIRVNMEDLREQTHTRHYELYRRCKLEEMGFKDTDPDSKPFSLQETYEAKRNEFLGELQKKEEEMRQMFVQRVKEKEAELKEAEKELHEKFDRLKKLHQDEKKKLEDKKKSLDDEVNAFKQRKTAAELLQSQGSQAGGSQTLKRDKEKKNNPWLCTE
B4: G patch domain and ankyrin repeat-containing protein 1 (Homo sapiens), O95872 (parent)
chain: MSRPLLITFTPATDPSDLWKDGQQQPQPEKPESTLDGAAARAFYEALIGDESSAPDSQRSQTEPARERKRKKRRIMKAPAAEAVAEGASGRHGQGRSLEAEDKMTHRILRAAQEGDLPELRRLLEPHEAGGAGGNINARDAFWWTPLMCAARAGQGAAVSYLLGRGAAWVGVCELSGRDAAQLAEEAGFPEVARMVRESHGETRSPENRSPTPSLQYCENCDTHFQDSNHRTSTAHLLSLSQGPQPPNLPLGVPISSPGFKLLLRGGWEPGMGLGPRGEGRANPIPTVLKRDQEGLGYRSAPQPRVTHFPAWDTRAVAGRERPPRVATLSWREERRREEKDRAWERDLRTYMNLEF
partner: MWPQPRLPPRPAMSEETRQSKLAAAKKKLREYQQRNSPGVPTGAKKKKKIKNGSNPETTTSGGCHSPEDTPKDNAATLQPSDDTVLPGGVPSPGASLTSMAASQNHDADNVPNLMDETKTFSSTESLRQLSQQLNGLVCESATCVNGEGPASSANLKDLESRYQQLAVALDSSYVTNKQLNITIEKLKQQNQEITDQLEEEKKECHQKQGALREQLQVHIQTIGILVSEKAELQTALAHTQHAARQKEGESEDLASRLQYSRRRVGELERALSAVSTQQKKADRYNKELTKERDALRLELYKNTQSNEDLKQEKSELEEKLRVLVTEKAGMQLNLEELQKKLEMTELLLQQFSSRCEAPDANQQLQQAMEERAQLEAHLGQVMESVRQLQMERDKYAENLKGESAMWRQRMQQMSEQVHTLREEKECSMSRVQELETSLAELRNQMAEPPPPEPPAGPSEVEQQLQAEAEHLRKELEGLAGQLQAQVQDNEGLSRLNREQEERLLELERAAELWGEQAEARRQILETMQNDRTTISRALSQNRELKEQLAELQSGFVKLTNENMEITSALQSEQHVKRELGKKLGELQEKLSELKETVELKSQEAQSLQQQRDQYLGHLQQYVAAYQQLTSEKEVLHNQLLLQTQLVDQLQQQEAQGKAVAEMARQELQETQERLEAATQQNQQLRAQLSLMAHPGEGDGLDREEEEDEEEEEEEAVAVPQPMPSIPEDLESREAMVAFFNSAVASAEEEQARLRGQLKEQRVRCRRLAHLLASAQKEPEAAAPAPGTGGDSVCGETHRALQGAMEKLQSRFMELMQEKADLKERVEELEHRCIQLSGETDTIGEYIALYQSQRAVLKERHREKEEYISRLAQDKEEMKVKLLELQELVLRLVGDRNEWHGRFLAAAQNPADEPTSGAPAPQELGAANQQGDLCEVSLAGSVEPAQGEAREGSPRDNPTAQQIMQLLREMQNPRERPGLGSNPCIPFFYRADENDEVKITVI
B5: E3 ubiquitin-protein ligase TRIM32 (Homo sapiens), Q13049 (parent)
chain: MAAAAASHLNLDALREVLECPICMESFTEEQLRPKLLHCGHTICRQCLEKLLASSINGVRCPFCSKITRITSLTQLTDNLTVLKIIDTAGLSEAVGLLMCRSCGRRLPRQFCRSCGLVLCEPCREADHQPPGHCTLPVKEAAEERRRDFGEKLTRLRELMGELQRRKAALEGVSKDLQARYKAVLQEYGHEERRVQDELARSRKFFTGSLAEVEKSNSQVVEEQSYLLNIAEVQAVSRCDYFLAKIKQADVALLEETADEEEPELTASLPRELTLQDVELLKVGHVGPLQIGQAVKKPRTVNVEDSWAMEATASAASTSVTFREMDMSPEEVVASPRASPAKQRGPEAASNIQQCLFLKKMGAKGSTPGMFNLPVSLYVTSQGEVLVADRGNYRIQVFTRKGFLKEIRRSPSGIDSFVLSFLGADLPNLTPLSVAMNCQGLIGVTDSYDNSLKVYTLDGHCVACHRSQLSKPWGITALPSGQFVVTDVEGGKLWCFTVDRGSGVVKYSCLCSAVRPKFVTCDAEGTVYFTQGLGLNLENRQNEHHLEGGFSIGSVGPDGQLGRQISHFFSENEDFRCIAGMCVDARGDLIVADSSRKEILHFPKGGGYSVLIREGLTCPVGIALTPKGQLLVLDCWDHCIKIYSYHLRRYSTP
partner: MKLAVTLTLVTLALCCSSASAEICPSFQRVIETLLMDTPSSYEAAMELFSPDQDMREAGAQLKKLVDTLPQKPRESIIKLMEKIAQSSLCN

In the first assay the parent is B1. The following applies: with fa50b_human FAM50B.
Turning to L12H, the “effect of a mutation on the interaction” value was “disrupting interaction strength”.

The next assay covers variants of B2. The following applies: with fbx7_human FBXO7, Q9Y3I1.
For V192A, the “effect of a mutation on the interaction” value is “with no effect”.

Variants of B3 are the subject of a further assay. The following applies: with sept6_human SEPTIN6, Q14141.
Take H270D: the “effect of a mutation on the interaction” value is recorded as “with no effect”.

In a further assay the parent is B4. Conditions: with goga2_human GOLGA2, Q08379.
R41L: the “effect of a mutation on the interaction” value was “with no effect”.

Variants of B5 are the subject of a further assay. The following applies: with uter_human SCGB1A1, P11684.
E547A: the “effect of a mutation on the interaction” value is “disrupting interaction strength”.
